We go through one molecule from PMC10673843, “Selection, characterization and in vivo evaluation of novel CD44v6-targeting antibodies for targeted molecular radiotherapy” (Scientific Reports, 2023).

The target in the test is T1, CD44 (isoform 4), Fc-fused (Homo sapiens, UniProt P16070-4, strain).
T1 construct: printed MW 94.4 kDa; Fc-fused, dimeric presentation; For selections, ELISA and HTRF it was chemically biotinylated by amine coupling; also called CD44iso4; CD44iso4-Fc fusion construct; source: bought: Promab Biotechnologies, produced in HEK293 cells; not shown: Fc (IgG1), C-terminal, kept
Nature of the test: SPR; single cycle kinetics; purified IgG4 captured by an immobilised anti-Fab antibody on a CM5 chip; CD44iso4 (Fc-fused, dimeric) injected in five concentrations between 80 and 0.3 nM; HBS with 0.05% Tween20, pH 7.5; 1:1 model; apparent (possible avidity from the dimeric target). The settings on record: both partners purified. In general terms: SPR reads the build-up and loss of mass on a sensor chip optically.

B1: BIWA4 (bivatuzumab), as human IgG4 (antibody, V domains shown)
VH: EVQLVESGGGLVKPGGSLRLSCAASGFTFSSYDMSWVRQAPGKGLEWVSTISSGGSYTYYLDSIKGRFTISRDNAKNSLYLQMNSLRAEDTAVYYCARQGLDYWGRGTLVTVSS
VL: EIVLTQSPATLSLSPGERATLSCSASSSINYIYWYQQKPGQAPRLLIYLTSNLASGVPARFSGSGSGTDFTLTISSLEPEDFAVYYCLQWSSNPLTFGGGTKVEIK
notes: VH of BIWA4; human IgG4 heavy chain constant region from the in-house vector pHAT-hIgG4, with the hinge-stabilising S228P substitution; numbers count on: EU numbering; VL of BIWA4; light chain constant region of the vector pHAT-hIgG4; also called positive control; source: expiHEK293 cells, transfected, purified (Protein A beads)
As to B1, the binding result is on record as “binds”.
